# Results taken from the DeepSol protein solubility set.
# Assay: soluble on expression in E. coli; label from the status in PepcDB or PDB records
row,Sequence,soluble on expression in E. coli
1,MIKDQDAEFHVTDSDPTWAETNFFGFFNAEHKLNVGVYALFRPNLGVVSSTICMNSGRAVTPWEADFCDLRSAMPIPTPRSLLDYKLLNTLHVHCLDPNRVWHIGYDDQQGTRIDVRYEALMPAFDIHDPEMDPMCGSESEAGKFAWGTAYDGHFDQTGHFKGSVAIRGREVPIDCVSTMDHSWGARPERGKPNMSWLHAHFSKDLAVHGIFGFDQTRNGVELWLAHGYVMERGRIVGLKAGTGQVERPQERYPEQLQLQVTDAKDRVWKLRGRALTTFPWQCWPNMISFNSLCAWEMNGLKGHGEVQDFFELPQLNALNSVESTRRPSRPL,not soluble
2,MSLGTIIIVDDNKGVLTAVQLLLKNHFSKVITLSSPVSLSTVLREENPEVVLLDMNFTSGINNGNEGLFWLHEIKRQYRDLPVVLFTAYADIDLAVRGIKEGASDFVVKPWDNQKLLETLLNAASQAKDGKKKNRKKESSPVSAMYWGESSAMQQLRTLIEKVATTNANILITGENGTGKEMLAREIHALSPRSAESMISVDMGAITESLFESELFGHVKGSFTDAHADRTGKFEAADRSSLFLDEIGNLPFHLQAKLLTAIQQRSIVRVGSNQSIPVDIRLICATNRNLQEMVDKGLFREDLLYRINTIHVEIPPLRKRKEDIVPLAERFIARFCKQYDKASISLSPAACEKLTAHAWYGNIRELEHSIEKAVIISDGETIPAEMFQLVQKTENPETETSTLEDMEKAMIRKALDKCGGNLSAVAAQLGITRQTLYNKMKKFGLEGHHHHHH,soluble
3,MSLESIKVGMIGYKFMGKAHSHAYRDLPMFFPDHLRPEMKVICGRNPEGVAQAASQYGWEEYTTNWKDLIRRDDIDLIDINAPSDVHKEITLAAAQAGKHIFCEKPLALTLQDSRHMLEAVEAAGVKHMVGFNYRFTPAVLLAKKLIAEGRLGDIYHFRAWFLQDWIVAPDFPLVWRLQKDIAGSGAHGDLGAHLIDMAHFLIGDITEVIGMNETFIKERPLPTEMTGLSGRGSNDHTVPKGPVTVDDATLFMARFANGALGSFEATRFATGHRSTNSFEINGSKGSVIFDFERLNELQVYFTDDQDDVQGFRRVLATDGAHAYSDRWWPAGHTIGYEHTFIHEIAELMESLQEGRQPVPNFKDGVKCQQVLEAVDLSIAKREWIQVSEGHHHHHH,soluble
4,MILTFNPGKLERQEFFKELINYLWIHDDVTLRKIKSHFTDYSKIDRLLEEYINHGYILRQNKRYSLNLPFLSSLDGLVLDDLVFIDSDSQIYQLLQKRKFVTNLDNPTNHLVFVEETDFERNTLTLSNYFYKLTNGYPLSREQKKLYQLLGDVNSEYALKYMSSFILKFLRKDSVKQKRTVIFIQALELLGYISLNQDTTYRLNAKLDVEALKIYLT,not soluble
5,MIVMTKQQYQEILEHSRNALPNEACGLLGGRIENGVKYVEKVYLLRNIDESPEHFSMNPKEQFAAVKDMRNNGWELLGNFHSHPATPSRPSEEDIRLAFDPKASYLILSLKDDTPVLKSFNISSGQATQEELSIVGEEALEHHHHHH,soluble
6,MPRGLILATPQLPPDGTPFSARYDDVYHSTEGGLAQAHHVFLGGNGLPGGWQGKRSFTIVETGFGQGLNFLATWAAWRDDPQRCGRLDFVSVEKHPFDRAGLALVHAQEGALASLAEALRQAWPVPVPGVHRLVFDAGRVTLTLMLGDAETLLPQLSCAADAFYLDGFSPAKNPDLWQPGVFKQLARIARGGATLATYTAAGAVRHGLREAGFEVRKAPGFGRKRDMTVAAFPTHWRTRRGPAEAPVWPERHAIVLGAGLAGCSVAERLAARGWRITLIDEHEAPAGGASAHRAAAMHPHVSIDDSVLSRLSRAGNLLARRHWEALDRAGFATGFHPTGVLQLAEHADDAAEQQRIVQALGFPADFIAWLDAARAADRVGAGVPQGGWWFAQAGWVAPPDICRAALAAAGEAVELRWRTRIESLLRHDAGWRACDAQGNVIAHAPVVVLANSLDAVRLAPLASAALKPVRGQLTDVPVAALEDGVPWPRAVVCGDGYLLPRERGAPTVRVGSSFQPGETDPDARTADHAANLRRLAGLQPAHAAALARVDPARLLGYVGVRCVSANRLPLIGAVADEAAIMAPGFRLRGPHAALPRVPGLYAALAYGSRGLTWSVLGAELLAAQIDGGPLPLESELAAALDPGRFLMRALRHGKHAA,soluble
7,LKELHILTRDGKINQDTRRKLKQVYHLYQFIEPLMADVLEKKGAMTLADHGAGKSYLGFILYDLFLKEKAAGHVYGVETRQELVDKSRELAERLGFERMGFLNLTVEQSITSTALPEQVDIITALHACNTATDDAIRFALAKDAQYIVLVPCCQAEVASVLRQKKNETFGKTPLSELWRHPIHTRE,not soluble
8,RSTMKYIRTLSAEIGILEGGNLDYRITVTGSDEMAVLAKGLDSMRESIRDKISQEAELIRLNQSMITGLSHDLRTPLTALLIYTEILKNEIDADRKQMQKWVLKIDEKAHQIKDMADCILNYSLLKKAAGPTALRQEPFRSVFYDSLSELCVCLEQKGFEVRPSLAWEDREICADSKYITRILDNICSNIIKYASCGDPIRIESFYQTDGCGLVFENKKSANQTQAESTGIGVRNIREMMEEMGGCCEAEETSEDYRIRLTFACSPAV,not soluble
9,RYHEFLGHFMNQFTSFGVAGAHGKTSTTGLLSHSMKNITDTSYLIGDGTGRGSANAQYFVFEADEYERHFMPYHPAYSIITNIDFDHPDYFTSIDDVFSAFDDYAKQVQKGLFVYGEDSNLRKITSNAPIYYYGFEENDDFMATDIIRTTTGSNFKVKHDGQIIGEFHVPAYGRHNILNATAVIANLYVAGFDMALVAEHLKTFSGV,not soluble
10,MAHHHHHHMHATKSGVTTLSASAGNSDVPVMSAAYEDAARQPNAVFVNVYDIMKSNSWLWSVGLGVHHAGIQVYDKEYQYGRCEEGSGVRAVEPRHSPPHIFREQFFVGQTQLSALEVRKLVARLEQCDTWQGSKYHLVKHNCIHFAQAFCEALLPPHVRVAQMRTALPSTYQSAYMEEVEVDGQQYSLPVLIPPHVSRLSNYATSYLPESALQMLDSMDNPFSTP,soluble
11,MSLKYSFIAQHKKTWPVGMMCQLMGVTSSGYYSYQKRKSTKTNNEPEHEELLEWVKKISESSKFSYGNRRIRKALNALGYPVGRRKTHRLMREAGIFVRYKKKYKVTTNSNHKQPIFDNVLNRKFQVNEPNRAYVSDMTYIPTHEGWLYLTVVIDLFSRKVVGWNMSSRMKADTVCDALTMAIWQRKPKAGLIVHSDRGSQYASKQYRSLLNQHGLVGSMSKKGDCWDNSVAESFFSRLKDELVHWRNYQTRREAKQDILDYMTMFYNNQRLHSSLDYLSPNQFENRYWGLMKKVAEGHHHHHH,not soluble
12,RIAISNSNRTRSVPSLTTIWSISPTPNCSIYETQDANLFLCLTKNGAHVLGTITIKGLKGALREMHDNALSLKLPFDNQGNLLNCALESSTWRYQETNAVASNALTFMPNSTVYPRNKTAHPGNMLIQISPNITFSVVYNEINSGYAFTFKWSAEPGKPFHPPTAVFCYITEQGSHHHHHH,soluble
13,MYQAVVFFDLDGTLMQDDKTVAASSVRAIQQLRANHVLPVIATGRNVFEVQDVMTTTGIDSIVSANGSYVAYQGQFLSAHELDKELLTDITHFANRQQNALAYYNNAGFALSHRDALTTSNYRALRQTARVAPHFYEHQHINFLLTFDPLNAAQYRQRYRGRLHFVRNNPRALDTMQWGVSKAVGIQDILTKAHLTKVPTYAFGDQLNDIEMFRMIQTPIAMGNGHPQVKQLARYVTADNMHGGIAQGLQHFDLI,not soluble
14,LTTRDFDRTGRPLRFTELGFGSSPLGNLYRAISEEEAQALLERAWAGGIRYFDTAPLYGYGLAEERLGRFLAGHPRSDYVLSTKVGRLLRPVEPGEARDGLGKFFEVPERKERFDYGYDGVMRSLEASLDRLGLDRVDVLYAHDLDLFTHGSQEALEARLAEFMAGGYRALVELRDQGVISAFGAGVNEWQPCQWLAERGEFDLFLLAGRYTLLEQEALESFLPLAEERGIGIVIGGPYNSGVLATGPKPGSFYDYRLAPQAVLDRVAQIHTICERWGVRMFEAAFQFPLRHPAVLSVIPGPQSVGEVMENRIAADAELPPGLWEDLKVAGLLRPD,soluble
15,MSLYLMPKQDEIALLKQEEETVKATLRIKANKVAVLPQIQAQLDELKERYDFLLRQLPVQKELASMLASVNQLGLDSSLTFTRIDWGERESQEFLYRLPLNIELTGSYHDIGDFSQAIAKLPRIINFDDVDWQRVSQESSTLHFRVRAYTYQFKQEVDDEKEGHHHHHH,not soluble
